Data published in publication PMC8478808 (Stroke, 2021).

Molecular target: T1, recombinant mouse CD200R1 Fc chimera (mouse, UniProt Q9ES57 26-238)
T1 sequence (looked up): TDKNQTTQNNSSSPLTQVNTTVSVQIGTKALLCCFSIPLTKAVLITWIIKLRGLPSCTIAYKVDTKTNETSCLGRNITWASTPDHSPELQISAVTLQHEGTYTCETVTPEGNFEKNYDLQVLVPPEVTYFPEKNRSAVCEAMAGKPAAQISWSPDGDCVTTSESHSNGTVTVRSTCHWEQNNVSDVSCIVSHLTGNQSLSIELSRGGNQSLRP
Experiment: ELISA

binding result: binds
B1: biotinylated recombinant mouse CD200-Fc Chimera (carrier-free) (Fc fusion, UniProt O54901 31-232, looked up)
chain: QVEVVTQDERKALHTTASLRCSLKTSQEPLIVTWQKKKAVSPENMVTYSKTHGVVIQPAYKDRINVTELGLWNSSITFWNTTLEDEGCYMCLFNTFGSQKVSGTACLTLYVQPIVHLHYNYFEDHLNITCSATARPAPAISWKGTGTGIENSTESHFHSNGTTSVTSILRVKDPKTQVGKEVICQVLYLGNVIDYKQSLDKG
modifications: biotin (biotinylated; site not stated)
